# According to the supplement of paper PMC12042874:
# ± gives the uncertainty stated by the source.
# Test: amyloid nucleation score (Sup35N fusion, yeast selection) (log enrichment); library NNK2; higher = more nucleation; inactive = no reads after selection
# Outline: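 Peptides of 20 random codons fused to Sup35N were expressed in psi-negative yeast, induced 24 hours with 100 μM copper sulfate, then grown 7 days at 30°C on medium lacking adenine and uracil. Input and output plasmid inserts were Illumina-sequenced. Nucleation score is the DiMSum log enrichment of output over input reads, centred on the mode score of non-aggregating sequences, excluding sequences with under 100 input reads. Random libraries had three technical output replicates.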
row,Substance,amyloid nucleation score
1,WHQLKSTPLHFYSINTASFN,0.123 ± 0.6
2,WHSVHYNLFCCF,8.689 ± 0.041
3,WIIHMSSEAYYPSSFGRIVI,-0.872 ± 1.1
4,WIMVI,-0.124 ± 0.26
5,WIQKPGLFASNGATATGGHV,0.395 ± 0.56
6,WITVVRLIYLAFFQTGST,-0.867 ± 0.63
7,WKLAHISLDFHFLYSR,-0.269 ± 0.61
8,WKVSLGWNSHMCAGMETLWM,4.18 ± 0.048
9,WLASPGDSSFMCLNVVVAAV,0.723 ± 0.5
10,WLEDAS,-0.557 ± 1.1
11,WLFSMRGGDAPKSKRRSIHH,4.96 ± 0.1
12,WLFTRRTLVWQSTHPNVMTT,inactive
13,WLIFLTVISISCCDQGVRF,7.401 ± 0.028
14,WLIMT,inactive
15,WLIRL,inactive
16,WLKNKLMLVLFTESLPNRSP,-1.02 ± 0.61
17,WLNLGMNLLLE,3.77 ± 0.093
18,WLQAHGIVYLNICRNSGFVH,5.12 ± 0.058
19,WLRVTRLEIWQGKFSTNELT,-0.755 ± 1.1
20,WLSDRASCYRESRCVEQ,-0.742 ± 0.42
21,WLSSGAVRVKGCGFYNSRYN,inactive
22,WLWLND,-0.661 ± 1.1

row,Substance,amyloid nucleation score
1,WMGNLLGVRFMIKMIGYRAL,inactive
2,WMRRAVAAND,0.186 ± 0.54
3,WMVIHSGADCQCL,0.605 ± 0.36
4,WMWDFFYTGLLMRTF,inactive
5,WMYGWERSRVYDGNIVDRRW,0.035 ± 1
6,WNFKGRLLRMQLTRAHVNHT,inactive
7,WNHGIWS,1.03 ± 0.37
8,WNIVVSYNDLFV,-1.07 ± 0.76
9,WNKFNICFKGKAW,0.123 ± 0.5
10,WNTAYGRVLASL,2.32 ± 0.092
11,WNVSGC,-0.474 ± 0.55
12,WPFRESVY,0.41 ± 0.5
13,WPWVSGPVKQSRCFRIDLSM,0.459 ± 0.57
14,WQIRWVYVSIWSQFAQTRGV,0.462 ± 0.29
15,WRGGFWPCSVVLI,0.354 ± 0.65
16,WRGGGLQLVQCDYRTLDNTQ,-0.409 ± 0.37
17,WRRPFM,0.163 ± 0.3
18,WSDGLSPVKLVRLS,3.91 ± 0.094
19,WSFDIAVTAR,inactive
20,WSFVGSTLSRDGSHNQDVHW,3.58 ± 0.098
21,WSGVSGNLT,0.145 ± 0.4
22,WSIPLSLMQSIRSCYNELIN,3.67 ± 0.11

row,Substance,amyloid nucleation score
1,WSSERWPEWIG,0.027 ± 0.24
2,WSSKGVCYEVLCRFKVLQ,2.99 ± 0.084
3,WSTLGIDVSSCT,-1.52 ± 0.54
4,WTKEAKIYSCFCSHF,8.663 ± 0.08
5,WTSPGSLPKRALCGRVERYA,-0.53 ± 0.29
6,WVCNFVMIRLGIFEF,1.78 ± 0.14
7,WVDGVLGFKSTLARQSETGG,-0.121 ± 1.1
8,WVGHFIDISDATGRPWHMKA,-0.107 ± 0.53
9,WVIDACLNRPLSERSYYRNK,0.767 ± 0.58
10,WVIFSLVKWCMFSNDVVWVA,-0.944 ± 0.34
11,WVLCRRNLLGH,inactive
12,WVQLWESASFGNRLVGNMSL,-0.352 ± 1
13,WVSMVVCMVSYNSYFE,5.48 ± 0.062
14,WVVLLFKCFFEVLMLPLKVI,-0.29 ± 0.38
15,WWHAAFFVAAFPNA,2.19 ± 0.17
16,WWKAGFSCDTEMSRRPHTLV,-0.168 ± 1.1
17,WYDSIMT,-0.084 ± 0.35
18,WYGCMVIAQWGFYYENNTSW,inactive
19,WYIRPSKTCEVSFGYPRRSW,-0.891 ± 1.1
20,WYRLAFQLELPLFHRSYRRW,0.288 ± 0.37
21,WYRTGMGNLLSRGDVDTVRT,0.131 ± 0.55
22,WYVLFSMMWA,-1.36 ± 0.78

row,Substance,amyloid nucleation score
1,WYWPCKGTREFKFNLYECSG,0.517 ± 0.41
2,YADKSKTCNYFSQLP,0.016 ± 1.1
3,YALWIVMLVP,-0.104 ± 0.49
4,YANDELLGAGGADS,0.652 ± 0.35
5,YANMGYQGLIRGIGVLDWIK,-0.119 ± 0.36
6,YARANYYALLWPRLTFPMIL,-1.41 ± 0.78
7,YAVLIMYYALAKAWWSLKYG,-0.002 ± 1
8,YCANDVVMLSA,1.06 ± 0.17
9,YCLELIGSLTHALPVKSLLV,inactive
10,YCNIPNRPVSKALRNHLS,inactive
11,YCQSIVFCSI,3.84 ± 0.086
12,YCSQAYHAGRRSALEQDSCM,0.734 ± 0.81
13,YDGANWRSKGWLDLFSIMKQ,-1.23 ± 0.75
14,YDKFPRNVGESYEHRCSWSE,0.458 ± 0.8
15,YDLRVMWRNVSSDFLREKVC,-0.249 ± 1
16,YDPDFSGYCYFAIILYIIFS,-1.5 ± 0.62
17,YDVRMSKMFAYTLSSEC,0.203 ± 0.53
18,YFDTYLMTSRGCSIFMAQFR,1.67 ± 0.28
19,YFGTVHAILGFICLCLIIFQ,3.66 ± 0.085
20,YFKFAGV,4.16 ± 0.095
